System: Ventral spinal cord neurons
Assay: Choline acetyltransferase (CAT) activity in ventral spinal cord cultures
Type: cell-based, rat
Protocol: Sprague-Dawley rats (HSD or Zivic-Miller) were used for all experiments. Pregnant rats (E14) were sacrificed as described in 10.1.1.
Spinal cords were removed aseptically from rat embryos as described in 10.1.2. The cord tissues were minced into small pieces and incubated in 0.1% trypsin (GIBCO) and 0.01% deoxyribonuclease type 1 (Sigma) at 37° C. for 20 minutes. Trypsin solution was then removed, rinsed and replaced with medium consisting of 45% Eagle's minimum essential medium (MEM), 45% Ham's nutrient mixture F12 (F12), 5% fetal calf serum (GIBCO), 5% horse serum (GIBCO) glutamine (2 mM), penicillin G (0.5 U/ml), and streptomycin (0.5 ug/ml). This was then mechanically dissociated twice by gentle trituration through a Pasteur pipet in the same medium, and the supernatants were pooled and filtered through a nylon filter (Nitex, Tetko; 40 um). Total cell number yielded was determined by hemocytometer counting in the presence of trypan blue. Dissociated ventral cells were then plated at a density of approximately 50,000 cells/cm^2 on dishes coated with poly-L-ornithine (10 ug/ml) and laminin (5 ug/ml). Treatments were given on the day of plating, except for delayed addition experiments in which treatments were given on days 2 or 6. Cultures were maintained at 37° C. in 95% air/5% CO2 atmosphere at nearly 100% relative humidity. Culture medium was changed every 3 to 4 days. A mitotic inhibitor, cytosine arabinoside (Ara C; 0.5 uM), was added on day 2 to reduce the number of nonneuronal cells. On day 7, cells were harvested for measurements of choline acetyltransferase (CAT; Fonnum, 1975 J. Neurochem. 24:407-409) and protein (Bradford, 1976, Annal. Biochem. 72:248-254) levels or fixed in 4% paraformaldehyde for NF assay (Doherty et al., 1984, J. Neurochem. 42:1116-1122) and immunocytochemistry. Some cultures were grown in defined medium consisting of 50% F12 and 50% MEM, glutamine (2 mM), insulin (5 ug/ml), transferrin (100 ug/ml), progesterone (20 nM), putrescine (10 uM), and sodium selenite (30 nM) (Bottenstein and Sato, 1979, PNAS 76:514-517). In these cultures sera-containing medium was replaced with defined medium on day 1.
Cultures were harvested by lysing the cells in a 20 mM Tris-HCl (pH 8.6) solution containing 0.1% Triton X-100. Two microliters of the cell lysate was removed and assayed for CAT activity according to the micro-Fonnum procedure (Fonnum, 1975, J. Neurochem. 24:407-409). The final substrate composition consisted of 0.2 mM [1-^14C] Acetyl-CoA (NEN, 54.4 mCi/mmol), 300 mM NaCl, 8 mM choline bromide, 20 mM EDTA, and 0.1 mM neostigmine in 50 mM NaH2PO4 (pH 7.4) buffer. At these enzyme and substrate concentrations, the enzymatic reaction was linear for 90-120 minutes. The specificity of the induction for CAT was tested by the addition of a specific inhibitor of CAT activity, N-hydroxyethyl-4-(1-napthylvinyl) pyridium (HNP), during the assay (White and Cavallito, 1970, J. Neurochem. 17:1579-1589).

B1: CNTF: ciliary neurotrophic factor; recombinant rat CNTF in Sections 10, 15, 17, purified rat sciatic nerve CNTF in Section 11; see endpoint conditions (protein, UniProt P20294 1-200, looked up)
Ciliary neurotrophic factor: MAFAEQTPLTLHRRDLCSRSIWLARKIRSDLTALMESYVKHQGLNKNINLDSVDGVPVASTDRWSEMTEAERLQENLQAYRTFQGMLTKLLEDQRVHFTPTEGDFHQAIHTLMLQVSAFAYQLEELMVLLEQKIPENEADGMPATVGDGGLFEKKLWGLKVLQELSQWTVRSIHDLRVISSHQMGISALESHYGAKDKQM
- time after treatment at which increase in CAT activity was apparent: 3 days
- effect on CAT activity with glia reduced to about 5% of total cells (AraC 0.5 uM or serum-free medium, CNTF 10 ng/ml): remained unchanged
- increase in CAT activity over the increase in number of cholinergic neurons (CNTF 10 ng/ml): 1.6 fold
- increase in CAT activity, delayed addition at day 2 (CNTF 10 ng/ml added on day 2, treated 7 further days): 1.2 fold
- effect on CAT activity, delayed addition at day 6 (CNTF 10 ng/ml added on day 6, treated 7 further days): can no longer influence CAT activity
- increase in CAT activity (CNTF 10 ng/ml, NGF 50 ng/ml, FGF 50 ng/ml at plating, after 7 days in culture): 4.0 fold
- CNTF concentration of maximal response in CAT activity (day 7): 1 ng/mL

Source: patent US6602687B1, “DNA encoding human ciliary neurotrophic factor and method for producing the protein encoded thereby” (Regeneron Pharmaceuticals, Inc., priority 1989, dated 2003)
